In US20150132779A1:

Molecular target: M1-linked polyubiquitin chains (UniProt P0CG48)
Assay: cell-based or functional assay

Ub-ProT assay: length of chain protected from trypsinization (ubiquitin molecules): < 16
Substance: trypsin-resistant tandem ubiquitin binding entity (TR-TUBE) (designed binder)
